What was measured:
[1] = target: FCGR1A (FCGR protein) of the membrane proteome array (human) (UniProt P12314); experiment: validation titration, flow cytometry on transfected HEK-293T cells
[2] = target: Protein A (positive assay control transfected into cells) (UniProt P38507); experiment: as above
[3] = target: T1, Human CD19, wild-type full-length protein expressed on cells (human, UniProt P15391 20-556); experiment: scFv clone screen on NALM6 cells with and without CD19
T1 construct: also called WT CD19; CD19 wild type protein
T1 sequence: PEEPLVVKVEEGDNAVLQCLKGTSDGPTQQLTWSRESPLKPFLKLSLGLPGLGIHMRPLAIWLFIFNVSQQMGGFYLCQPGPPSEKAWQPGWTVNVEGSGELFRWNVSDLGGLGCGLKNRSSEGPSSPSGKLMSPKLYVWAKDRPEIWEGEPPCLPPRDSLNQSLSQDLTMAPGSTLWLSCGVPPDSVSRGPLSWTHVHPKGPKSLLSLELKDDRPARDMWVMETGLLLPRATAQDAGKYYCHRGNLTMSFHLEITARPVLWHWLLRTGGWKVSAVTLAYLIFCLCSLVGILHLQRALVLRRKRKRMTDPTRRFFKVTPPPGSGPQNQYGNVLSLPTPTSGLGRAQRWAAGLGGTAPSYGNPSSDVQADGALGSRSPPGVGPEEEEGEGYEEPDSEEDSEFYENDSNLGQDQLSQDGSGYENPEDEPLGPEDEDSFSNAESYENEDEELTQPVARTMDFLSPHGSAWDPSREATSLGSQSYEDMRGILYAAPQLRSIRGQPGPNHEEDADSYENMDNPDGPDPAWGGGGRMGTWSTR
From the text: To ensure that the up to (30) clones could recognize native CD19 expressed on tumor cells, the clones (scFv) were also screened against NALM6 tumor cell line positive (+) CD19 expression (NALM6 cell line⁺ CD19). CD19 knockout Nalm6 cell line (NALM6 cell line⁻ CD1; or CD19KO Nalm6 cell line) were used as a negative control for the selection. CD19KO Nalm6 cell lines used for the screen were engineered CRISPR knocked-out (KO) Nalm6-CD19KO cells. Clones that bound CD19⁺ NALM6 tumor cells, but not CD19-NALM6 tumor cells (CD19KO) were selected (Step 4).

[4] = target: T2, FITC-Labeled human CD19 protein (ACROBiosystem, Cat-CD9-HF251) (human, UniProt P15391 20-291, FITC label); experiment: flow cytometry, premixed CD19-FITC protein and anti-CD19 PE (FMC63 clone) 1:1; FITC gate; competitor anti-CD19 PE (untransduced 0.21)
T2 construct: The text calls the same reagent CD19-FITC and CD19-GFP; also called CD19-FITC protein; CD19-FTC protein
T2 sequence (looked up): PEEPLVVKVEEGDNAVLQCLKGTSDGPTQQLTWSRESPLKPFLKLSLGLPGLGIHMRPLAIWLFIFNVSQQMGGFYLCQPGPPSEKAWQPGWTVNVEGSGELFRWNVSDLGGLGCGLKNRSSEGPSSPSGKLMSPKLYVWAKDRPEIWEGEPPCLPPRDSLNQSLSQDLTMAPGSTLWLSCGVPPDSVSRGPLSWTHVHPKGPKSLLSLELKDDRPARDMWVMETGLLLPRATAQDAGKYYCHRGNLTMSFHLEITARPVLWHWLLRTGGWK
Method: (§1) In the second set of assays, CAR T cells were co-incubated with the CD19-FTC protein and the anti-CD19 PE (FMC63 clones) at 1:1 or 1:3 ratio for 15 minutes. The CAR T cells were then stained and incubated for 20 minutes before imaging by flow cytometry. […] The CAR T cells were gated for anti-CD19 PE (anti-FMC63 antibody; idiotype antibody binding) and the CD19 binder CAR binder FITC (CD19-GFP detection).

[5] = target: T2, FITC-Labeled human CD19 protein …; experiment: flow cytometry, ND539 CAR T cells day 9, CD19-FITC protein only (untransduced 0.85)
Method: At day 9 (D9) post-transduction, frozen ND539 CAR T cells were incubated with a fluorescently labeled recombinant CD19 protein. The CD19 CAR T cells were then analyzed by flow cytometry to determine the binding of the recombinant molecules to the CD19 CAR T cells. ND539 CAR T cells expressing a CAR comprising a FMC63 binder were used as control. Flow was gated for CD19 binder CAR.

[6] = target: T2, FITC-Labeled human CD19 protein …; experiment: flow cytometry, CD19-FITC protein added after anti-FMC63 Ab PE; FITC gate; competitor anti-FMC63 Ab (untransduced 0.86)
Method: To determine whether the anti-FMC63 antibody and the CD19 binders could bind the same region on the CD19 protein, competitive assays were performed. In the first set of experiments, the CD19 CAR T cells were first incubated with 1 ul of anti-FMC63 antibody PE for 20 minutes. After the incubation period, 2 ul of the CD19-FITC protein was added to the CAR T cells, which were further incubated for another 20 minutes. The CAR T cells were washed and assessed by Flow cytometry. The CAR T cells were gated for anti-FMC63 antibody (idiotype antibody binding) and the CD19 CAR binders (CD19-GFP detection).

[7] = target: T2, FITC-Labeled human CD19 protein …; experiment: flow cytometry, premixed CD19-FITC protein and anti-CD19 PE (FMC63 clone) 1:3; FITC gate; competitor anti-CD19 PE (untransduced 0.21)
Method: as §1

[8] = target: T1, Human CD19, wild-type full-length …; experiment: cell-based or functional assay

Chain of FCGR1A (FCGR protein) of the membrane proteome array (human) (P12314 16-374): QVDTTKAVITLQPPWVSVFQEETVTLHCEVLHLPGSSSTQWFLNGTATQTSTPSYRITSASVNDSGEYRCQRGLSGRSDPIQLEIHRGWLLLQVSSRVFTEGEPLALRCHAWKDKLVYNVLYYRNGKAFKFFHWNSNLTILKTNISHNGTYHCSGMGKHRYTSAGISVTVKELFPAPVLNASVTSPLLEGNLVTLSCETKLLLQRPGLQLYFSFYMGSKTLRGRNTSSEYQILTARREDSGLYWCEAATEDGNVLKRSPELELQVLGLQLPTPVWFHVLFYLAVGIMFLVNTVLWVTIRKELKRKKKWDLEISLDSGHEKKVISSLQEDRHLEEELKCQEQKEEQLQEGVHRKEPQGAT

isotype control article (Example 13)
MFI signal, fold above negative control [1]: > 45 fold
MFI signal, fold above negative control [2]: > 190 fold

B1: CD19 16 scFv (P10) (scFv)
scFv: QSVLTQPPSVSGAPGQRVTISCTGSSSNIGAGYDVHWYQQLPGTAPKLLIYGNNNRPSGVPDRFSGSKSGTSASLAITGLQAEDEADYYCQSYDVSLGVWVFGGGTKLTVLGGGGSGGGGSGGGGSQLQLQESGPGLVKPSETLSLTCTVSGGSISSPSYYWGWIRQPPGKGLEWIGSIYYTGATYYNPSLKSRVTISVDTSKNQFSLKLSSVTAADTAVYYCARYGPAGVGFDYWGQGTLVTVSS
notes: also called 51; clone 51
binding result [3]: binds

B2: CD19 CAR comprising CD19 binder 52 (anti-CD19 scFv-BBz CAR) on T cells (other)
chain: QSVLTQPPSVSGAPGQRVTISCTGSSSNIGAGYDVHWYQQLPGTAPKLLIYGTKNRPSGVPDRFSGSKSGTSASLAITGLQAEDEADYYCQSYDVRLKGWVFGGGTKLTVLGGGGSGGGGSGGGGSQLQLQESGPGLVKPSETLSLTCTVSGGSITSSSYYWGWIRQPPGKGLEWIGSIYYTGTTYYNPSLKSRVTISVDTSKNQFSLKLSSVTAADTAVYYCARYVGLSGGFDYWGQGTLVTVSSTTTPAPRPPTPAPTIASQPLSLRPEACRPAAGGAVHTRGLDFACDIYIWAPLAGTCGVLLLSLVITLYCKRGRKKLLYIFKQPFMRPVQTTQEEDGCSCRFPEEEEGGCELRVKFSRSADAPAYKQGQNQLYNELNLGRREEYDVLDKRRGRDPEMGGKPRRKNPQEGLYNELQKDKMAEAYSEIGMKGERRRGKGHDGLYQGLSTATKDTYDALHMQALPPR
notes: also called CD19-52 CAR
Gated for CD19-CAR-FITC expression [4]: 14.5 mfi
Gated for CD19-CAR expression [5]: 30.4 mfi
Gated for CD19 CAR Expression [6]: 20.1 mfi
Gated for CD19-CAR-FITC expression [7]: 5.56 mfi
IL-2 & TNF-α, intracellular cytokine staining, Nalm6 stimulation, ND608 CAR T cells day 9 [8]: 37%
IL-2, intracellular cytokine staining, Nalm6 stimulation, ND608 CAR T cells day 9 [8]: 1.06%
TNF-α, intracellular cytokine staining, Nalm6 stimulation, ND608 CAR T cells day 9 [8]: 36.1%

B3: CD19 CAR comprising CD19 binder 45 (anti-CD19 scFv-BBz CAR) on T cells (other)
chain: DIQMTQSPSSLSASVGDRVTITCRASQDITRYLNWYQQKPGKAPKLLIYAASSLQSGVPSRFSGSGSGTDFTLTISSLQPEDFATYYCQQSYSYPPTFGQGTKVEIKGGGGSGGGGSGGGGSQVQLVESGGGVVQPGRSLRLSCAASGFTFRDYGMHWVRQAPGKGLEWVAVISYEGSNEYYADSVKGRFTISRDNSKNTLYLQMNSLRAEDTAVYYCARDRGFAGWYDYAFDPWGQGTLVTVSSTTTPAPRPPTPAPTIASQPLSLRPEACRPAAGGAVHTRGLDFACDIYIWAPLAGTCGVLLLSLVITLYCKRGRKKLLYIFKQPFMRPVQTTQEEDGCSCRFPEEEEGGCELRVKFSRSADAPAYKQGQNQLYNELNLGRREEYDVLDKRRGRDPEMGGKPRRKNPQEGLYNELQKDKMAEAYSEIGMKGERRRGKGHDGLYQGLSTATKDTYDALHMQALPPR
notes: also called CD19-45 CAR; 45 original
Gated for CD19-CAR-FITC expression [4]: 9.64 mfi
Gated for CD19-CAR expression [5]: 23.1 mfi
Gated for CD19 CAR Expression [6]: 17.7 mfi
Gated for CD19-CAR-FITC expression [7]: 4.76 mfi
IL-2 & TNF-α, intracellular cytokine staining, Nalm6 stimulation, ND608 CAR T cells day 9 [8]: 28.1%
IL-2, intracellular cytokine staining, Nalm6 stimulation, ND608 CAR T cells day 9 [8]: 1.16%
TNF-α, intracellular cytokine staining, Nalm6 stimulation, ND608 CAR T cells day 9 [8]: 25.2%

B4: CD19 10 scFv (P6) (scFv)
scFv: DIQMTQSPSSLSASVGDRVTITCRASQTISRYLNWYQQKPGKAPKLLIYAASSLQSGVPSRFSGSGSGTDFTLTISSLQPEDFATYYCQQSYRPPLTFGQGTKVEIKGGGGSGGGGSGGGGSEVQLLESGGGLVQPGGSLRLSCAASGFTFSSYAMSWVRQAPGKGLEWVSTISAGGHGTYYADSVKGRFTISRDNSKNTLYLQMNSLRAEDTAVYYCARGAGYFDYWGQGTLVTVSS
notes: also called 47; clone 47
binding result [3]: binds

B5: CD19 18 scFv (P11) (scFv)
scFv: QSVLTQPPSVSGAPGQRVTISCTGSSSNIGAGYDVHWYQQLPGTAPKLLIYGTKNRPSGVPDRFSGSKSGTSASLAITGLQAEDEADYYCQSYDVRLKGWVFGGGTKLTVLGGGGSGGGGSGGGGSQLQLQESGPGLVKPSETLSLTCTVSGGSITSSSYYWGWIRQPPGKGLEWIGSIYYTGTTYYNPSLKSRVTISVDTSKNQFSLKLSSVTAADTAVYYCARYVGLSGGFDYWGQGTLVTVSS
notes: also called 52; clone 52
binding result [3]: binds

B6: CD19 7 scFv (P5) (scFv)
scFv: DIQMTQSPSSLSASVGDRVTITCRASQSISKYLNWYQQKPGKAPKLLIYDASSLQSGVPSRFSGSGSGTDFTLTISSLQPEDFATYYCQQSYTIPLTFGQGTKVEIKGGGGSGGGGSGGGGSQVQLVQSGAEVKKPGSSVKVSCKASGGTFSSYAFSWVRQAPGQGLEWMGGIVPLFGAVEYAQKFQGRVTITADESTSTAYMELSSLRSEDTAVYYCAREKGFYRYFDHWGQGTLVTVSS
notes: also called 46; clone 46
binding result [3]: binds

B7: CD19 11 scFv (P7) (scFv)
scFv: DIQMTQSPSSLSASVGDRVTITCRASQSISSYLNWYQQKPGKAPKLLIYAASSLQSGVPSRFSGSGSGTDFTLTISSLQPEDFATYYCQQTGAVPYTFGQGTKVEIKGGGGSGGGGSGGGGSEVQLLESGGGLVQPGGSLRLSCAASGFTFRDYAMSWVRQAPGKGLEWVSAISESGIDTYYADSVKGRFTISRDNSKNTLYLQMNSLRAEDTAVYYCARVAGYDSDSSTYYDYMDVWGQGTLVTVSS
notes: also called 48; clone 48
binding result [3]: binds

B8: CD19 23 scFv (P12) (scFv)
scFv: DIQMTQSPSSLSASVGDRVTITCRASQSIYSYLNWYQQKRGKAPKLLIYDASSLQSGVPSRFSGSGSGTDFTLTISSLQPEDFATYYCQQSYTAPPTFGQGTKVEIKGGGGSGGGGSGGGGSEVQLLESGGGLVQPGGSLRLSCAASGFTFSNYAMSWVRQAPGKGLEWVSAISESGHGTYYADSVKGRFTISRDNSKNTLYLQMNSLRAEDTAVYYCARLDWAGFDVWGQGTLVTVSS
notes: also called 53; clone 53
binding result [3]: binds

B9: CD19 15 scFv (P9) (scFv)
scFv: DIQMTQSPSSLSASVGDRVTITCRASQPIRPYLNWYQQKPGKAPKLLIYDASSLQSGVPSRFSGSGSGTDFTLTISSLQPEDFATYYCQQSYSAPYTFGQGTKVEIKGGGGSGGGGSGGGGSEVQLLESGGGLVQPGGSLRLSCAASGFTFSSYAMSWVRQAPGKGLEWVSVISGGGANTYYADSVKGRFTISRDNSKNTLYLQMNSLRAEDTAVYYCARDWRYFDHWGQGTLVTVSS
notes: also called 50; clone 50
binding result [3]: binds

B10: CD19 14 scFv (P8) (scFv)
scFv: DIQMTQSPSSLSASVGDRVTITCRASQSISNYLNWYQQKPGKAPKLLIYAASSLQSGVPSRFSGSGSGTDFTLTISSLQPEDFATYYCQQAYSAPITFGQGTKVEIKGGGGSGGGGSGGGGSEVQLLESGGGLVQPGGSLRLSCAASGFTFGDYAMSWVRQAPGKGLEWVSAISRGGHGTYYADSVKGRFTISRDNSKNTLYLQMNSLRAEDTAVYYCARLVGYGLDYWGQGTLVTVSS
notes: also called 49; clone 49
binding result [3]: binds

From patent US20240123068A1 (KITE PHARMA, published 2024)
